Laboratory results from patent US20030167476A1.

Legend:
[1] = target: OR1, RASSL derived from the human kappa opioid receptor (human); experiment: cell-based or functional assay
[2] = target: OR2, RASSL derived from the human kappa opioid receptor (human); experiment: cell-based or functional assay
[3] = target: OR1, RASSL derived from the human kappa opioid receptor (human); experiment: binding to the receptor expressed in COS-7 and CHO-KI cells; Ki, method only 'as previously described'
[4] = target: OR2, RASSL derived from the human kappa opioid receptor (human); experiment: as above

Substance: Dynorphin A (from UniProt P01213 207-223) (peptide)
- EC50, signaling (activation of G protein-mediated signal) [1]: 61 nM
- EC50, signaling (activation of G protein-mediated signal) [2]: 1080 nM
- Ki [3]: 14.6 nM
- Ki [4]: 125 nM
